Assay results from patent US10689452 (UNIVERSIT T STUTTGART, dated 2020).

T1: human TNFR1-Fc fusion protein (human, UniProt P19438 29-211)
T1 construct: range 29-211; Made in stably transfected HEK293 cells; coated on ELISA plates or immobilised on QCM chips; also called huTNFR1-Fc; human TNFR-Fc; not shown: Fc part from vector pSecTagL1-Fc
T1 sequence (looked up): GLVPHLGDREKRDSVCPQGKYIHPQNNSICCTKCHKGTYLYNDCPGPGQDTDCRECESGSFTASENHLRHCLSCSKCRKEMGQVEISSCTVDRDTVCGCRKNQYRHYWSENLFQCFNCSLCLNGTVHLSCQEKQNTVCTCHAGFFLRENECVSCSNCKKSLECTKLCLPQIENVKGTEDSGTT

T2: human TNFR1 on cells (HT1080, HeLa, Kym-1) (human, UniProt P19438 30-455)
T2 sequence (looked up): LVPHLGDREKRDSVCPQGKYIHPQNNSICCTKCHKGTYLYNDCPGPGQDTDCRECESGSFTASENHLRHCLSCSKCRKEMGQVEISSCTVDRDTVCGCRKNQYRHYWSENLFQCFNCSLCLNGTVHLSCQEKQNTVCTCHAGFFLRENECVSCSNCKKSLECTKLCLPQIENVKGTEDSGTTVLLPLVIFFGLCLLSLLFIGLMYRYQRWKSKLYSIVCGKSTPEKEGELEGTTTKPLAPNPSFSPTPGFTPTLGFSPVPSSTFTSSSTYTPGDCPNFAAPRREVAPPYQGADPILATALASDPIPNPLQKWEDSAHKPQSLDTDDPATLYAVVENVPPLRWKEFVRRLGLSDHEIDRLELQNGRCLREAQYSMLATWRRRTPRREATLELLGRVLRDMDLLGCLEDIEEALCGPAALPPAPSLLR


Assays:
[1] = target: T1, human TNFR1-Fc fusion protein; test: ELISA, human TNFR1-Fc
[2] = target: T2, human TNFR1 on cells (HT1080, HeLa, …); test: cell-based or functional assay
[3] = target: T1, human TNFR1-Fc fusion protein; test: ELISA, immobilised human TNFR1-Fc
[4] = target: T2, human TNFR1 on cells (HT1080, HeLa, …); test: cell-based or functional assay; remark: listed apart in the source
[5] = target: T1, human TNFR1-Fc fusion protein; test: ELISA, immobilised human TNFR1-Fc; remark: listed apart in the source
[6] = target: T2, human TNFR1 on cells (HT1080, HeLa, …); test: cell-based or functional assay; remark: listed apart in the source
[7] = target: T1, human TNFR1-Fc fusion protein; test: ELISA on coated human TNFR1-Fc, scFv titrated, signal as Binding [%]
Description: FIG. 9. Binding to and blockade of human TNFR1.
Microtiter plates were coated with 100 µl of the indicated protein (1 µg/ml in PBS, see Table 3.3) and incubated at 4° C. over night. The residual binding sites were blocked with 2% MPBS (skim milk in PBS, 200 µl per well) at room temperature for 2 hours and subsequently washed twice with PBS. 100 µl of the samples diluted in 2% MPBS were incubated at room temperature for 1 hour prior to the last incubation step with 100 µl of the HRP conjugated detection antibodies in 2% MPBS. In the case of competition experiments, both analyzed protein samples were prepared individually (either titrated or diluted to a single concentration) and mixed before they were applied to the plate. Bound protein was detected with 100 µl TMB substrate solution, the HRP-reaction was stopped by the addition of 50 µl 1 M H2SO4 and the absorption at the wavelength of 450 nm was measured using the Infinite microtiter plate reader (TECAN, Maennedorf, Switzerland). Between each incubation step and in advance of the detection, the plates were washed three times with PBST and twice with PBS.

| IL-8 Inhibition IC50 [nM] (HT1080 cells, 0.1 nM soluble TNF) [4] | EC50 [5] | binding result [7] | further results | Binder |
| --- | --- | --- | --- | --- |
|  |  |  | EC50 [1]: 1.09 nM; IC50 (nM), inhibition of TNF-induced IL-8 release from HT1080 cells [2]: 284 nM | scFvFRK13.7 (scFv, V domains shown) VH: HVQLVQSGAEVKKPGSSVKVSCKASGYTFTDFYINWVRQAPGQGLEWIGEIVPSQGEAKYNDKFKARVTITADKSTSTAYMELSSLRSEDTAVYYCARWDFLDYWGQGTTVTVSS VL: DVQMTQSPSSLSASVGDRVTITCRSSQSLLHSNGNTYLHWYQQKPGKAPKLLIYTVSNRFSGVPSRFSGSGSGTDFTLTISSLQPEDFATYYCSQSTHVPYTFGGGTKVEIK |
|  |  |  | EC50 [1]: 1.06 nM; IC50 (nM), inhibition of TNF-induced IL-8 release from HT1080 cells [2]: 367 nM | scFvFRK13.5 (scFv, V domains shown, also called scFvFKR13.5) VH: HVQLVQSGAEVKKPGSSVKVSCKASGYTFTDFYINWVRQAPGQGLEWIGEIVPSQGEAKYNDKFKARVTITADKSTSTAYMELSSLRSEDTAVYYCARWDFLDYWGQGTTVTVSS VL: DIQMTQSPSSLSASVGDRVTITCRSSQSLLHSNGNTYLHWYQQKPGKAPKLLIYTVSNRFSGVPSRFSGSGSGTDFTLTISSLQPEDFATYYCSQSTHVPYTFGGGTKVEIK |
| 98.2 nM | 5 nM |  | fold increased EC50 compared to unmodified Fab13.7 [3]: 2.6 fold; fold higher IC50 (IL-8 release inhibition) compared to Fab13.7 [6]: 4.9 fold | Fab13.7PEG (Fab, V domains shown, PEG (printed 'PEG400.000' in paragraph 589; methoxy-PEG 40 kDa maleimide in paragraph 649) conjugated to the newly introduced cysteine of the C-terminal ...DKTHTCAA (SEQ ID 34), also called PEGylated Fab13.7'; PEGylated derivative of Fab13.7) VH: HVQLVQSGAEVKKPGSSVKVSCKASGYTFTDFYINWVRQAPGQGLEWIGEIVPSQGEAKYNDKFKARVTITADKSTSTAYMELSSLRSEDTAVYYCARWDFLDYWGQGTTVTVSS VL: DVQMTQSPSSLSASVGDRVTITCRSSQSLLHSNGNTYLHWYQQKPGKAPKLLIYTVSNRFSGVPSRFSGSGSGTDFTLTISSLQPEDFATYYCSQSTHVPYTFGGGTKVEIKR |
| 61.2 nM | 0.5 nM |  | fold higher IC50 (IL-8 release inhibition) compared to Fab13.7 [6]: 2.3 fold | Fab13.7-Fckih0DS (Fc fusion, knobs-into-holes heterodimer, FcgammaR-silenced, no hinge disulfides; also called monovalent Fab13.7-Fc fusion protein) chain 1: HVQLVQSGAEVKKPGSSVKVSCKASGYTFTDFYINWVRQAPGQGLEWIGEIVPSQGEAKYNDKFKARVTITADKSTSTAYMELSSLRSEDTAVYYCARWDFLDYWGQGTTVTVSSASTKGPSVFPLAPSSKSTSGGTAALGCLVKDYFPEPVTVSWNSGALTSGVHTFPAVLQSSGLYSLSSVVTVPSSSLGTQTYICNVNHKPSNTKVDKKVEPKSCGTDKTHTSPPSPAPPVAGPSVFLFPPKPKDTLMISRTPEVTCVVVDVSHEDPEVKFNWYVDGVEVHNAKTKPREEQYNSTYRVVSVLTVLHQDWLNGKEYKCKVSNKGLPSSIEKTISKAKGQPREPQVYTLPPSRDELTKNQVSLSCAVKGFYPSDIAVEWESNGQPENNYKTTPPVLDSDGSFFLVSKLTVDKSRWQQGNVFSCSVMHEALHNHYTQKSLSLSPGK chain 2: DVQMTQSPSSLSASVGDRVTITCRSSQSLLHSNGNTYLHWYQQKPGKAPKLLIYTVSNRFSGVPSRFSGSGSGTDFTLTISSLQPEDFATYYCSQSTHVPYTFGGGTKVEIKRTVAAPSVFIFPPSDEQLKSGTASVVCLLNNFYPREAKVQWKVDNALQSGNSQESVTEQDSKDSTYSLSSTLTLSKADYEKHKVYACEVTHQGLSSPVTKSFNRGECGTDKTHTSPPSPAPPVAGPSVFLFPPKPKDTLMISRTPEVTCVVVDVSHEDPEVKFNWYVDGVEVHNAKTKPREEQYNSTYRVVSVLTVLHQDWLNGKEYKCKVSNKGLPSSIEKTISKAKGQPREPQVYTLPPSRDELTKNQVSLWCLVKGFYPSDIAVEWESNGQPENNYKTTPPVLDSDGSFFLYSKLTVDKSRWQQGNVFSCSVMHEALHNHYTQKSLSLSPGK |
| 30.7 nM | 0.3 nM |  |  | Fv13.7-Fckih0DS (Fc fusion, also called monovalent Fv13.7-Fc fusion protein) chain 1: HVQLVQSGAEVKKPGSSVKVSCKASGYTFTDFYINWVRQAPGQGLEWIGEIVPSQGEAKYNDKFKARVTITADKSTSTAYMELSSLRSEDTAVYYCARWDFLDYWGQGTTVTVSSGTDKTHTSPPSPAPPVAGPSVFLFPPKPKDTLMISRTPEVTCVVVDVSHEDPEVKFNWYVDGVEVHNAKTKPREEQYNSTYRVVSVLTVLHQDWLNGKEYKCKVSNKGLPSSIEKTISKAKGQPREPQVYTLPPSRDELTKNQVSLSCAVKGFYPSDIAVEWESNGQPENNYKTTPPVLDSDGSFFLVSKLTVDKSRWQQGNVFSCSVMHEALHNHYTQKSLSLSPGK chain 2: DVQMTQSPSSLSASVGDRVTITCRSSQSLLHSNGNTYLHWYQQKPGKAPKLLIYTVSNRFSGVPSRFSGSGSGTDFTLTISSLQPEDFATYYCSQSTHVPYTFGGGTKVEIKGTDKTHTSPPSPAPPVAGPSVFLFPPKPKDTLMISRTPEVTCVVVDVSHEDPEVKFNWYVDGVEVHNAKTKPREEQYNSTYRVVSVLTVLHQDWLNGKEYKCKVSNKGLPSSIEKTISKAKGQPREPQVYTLPPSRDELTKNQVSLWCLVKGFYPSDIAVEWESNGQPENNYKTTPPVLDSDGSFFLYSKLTVDKSRWQQGNVFSCSVMHEALHNHYTQKSLSLSPGK |
|  |  | binds |  | scFvFRK13.1 (scFv, V domains shown) VH: QVQLVESGGGLVKPGGSLRLSCAASGFTFSDFYINWIRQAPGKGLEWVSEIYPYSGHAYYNEKFKARFTISRDNAKNSLYLQMNSLRAEDTAVYYCARWDFLDYWGQGTTVTVSS VL: DIQMTQSPSSLSASVGDRVTITCRSSQSLLHSNGNTYLHWYQQKPGKAPKLLIYTVSNRFSGVPSRFSGSGSGTDFTLTISSLQPEDFATYYCSQSTHVPYTFGGGTKVEIK |
|  |  | binds |  | scFvFRK13.3 (scFv, V domains shown) VH: QVQLVESGGGLVKPGGSLRLSCAASGFTFSDFYINWIRQAPGKGLEWVSEIYPYSGHAYYNEKFKARFTISRDNAKNSLYLQMNSLRAEDTAVYYCARWDFLDYWGQGTTVTVSS VL: DVQMTQSPSSLSASVGDRVTITCRSSQSLLHSNGNTYLHWYQQKPGKAPKLLIYTVSNRFSGVPSRFSGSGSGTDFTLTISSLQPEDFATYYCSQSTHVPYTFGGGTKVEIK |
|  |  | binds |  | scFvFRK13.4 (scFv, V domains shown) VH: QVQLVESGGGLVKPGGSLRLSCAASGFTFSDFYINWIRQAPGKGLEWVSEIYPYSGHAYYNEKFKARFTISADNAKNSLYLQMNSLRAEDTAVYYCARWDFLDYWGQGTTVTVSS VL: DIQMTQSPSSLSASVGDRVTITCRSSQSLLHSNGNTYLHWYQQKPGKAPKLLIYTVSNRFSGVPSRFSGSGSGTDFTLTISSLQPEDFATYYCSQSTHVPYTFGGGTKVEIK |
|  |  | binds |  | scFvFRK13.8 (scFv, V domains shown) VH: QVQLVESGGGLVKPGGSLRLSCAASGFTFSDFYINWIRQAPGKGLEWVSEIYPYSGHAYYNEKFKARFTISADNAKNSLYLQMNSLRAEDTAVYYCARWDFLDYWGQGTTVTVSS VL: DIVMTQSPLSLPVTPGEPASISCRSSQSLLHSNGNTYLHWYLQKPGQSPQLLIYTVSNRFSGVPDRFSGSGSGTDFTLKISRVEAEDVGVYYCSQGTHVPYTFGGGTKVEIK |
